Laboratory results published in paper PMC7775388.

Molecular target: full-length SARS-CoV-2 spike protein (residues 13-1273 of UniProtKB P0DTC2) fused to green fluoresce (SARS-CoV-2) (UniProt P0DTC2)
Assay: flow cytometry on cells

recombinant ACE2-Fc fusion protein (residue Gln18-Ser760 fused to human Fc), sequence (Q9BYF1 18-740 limits assumed): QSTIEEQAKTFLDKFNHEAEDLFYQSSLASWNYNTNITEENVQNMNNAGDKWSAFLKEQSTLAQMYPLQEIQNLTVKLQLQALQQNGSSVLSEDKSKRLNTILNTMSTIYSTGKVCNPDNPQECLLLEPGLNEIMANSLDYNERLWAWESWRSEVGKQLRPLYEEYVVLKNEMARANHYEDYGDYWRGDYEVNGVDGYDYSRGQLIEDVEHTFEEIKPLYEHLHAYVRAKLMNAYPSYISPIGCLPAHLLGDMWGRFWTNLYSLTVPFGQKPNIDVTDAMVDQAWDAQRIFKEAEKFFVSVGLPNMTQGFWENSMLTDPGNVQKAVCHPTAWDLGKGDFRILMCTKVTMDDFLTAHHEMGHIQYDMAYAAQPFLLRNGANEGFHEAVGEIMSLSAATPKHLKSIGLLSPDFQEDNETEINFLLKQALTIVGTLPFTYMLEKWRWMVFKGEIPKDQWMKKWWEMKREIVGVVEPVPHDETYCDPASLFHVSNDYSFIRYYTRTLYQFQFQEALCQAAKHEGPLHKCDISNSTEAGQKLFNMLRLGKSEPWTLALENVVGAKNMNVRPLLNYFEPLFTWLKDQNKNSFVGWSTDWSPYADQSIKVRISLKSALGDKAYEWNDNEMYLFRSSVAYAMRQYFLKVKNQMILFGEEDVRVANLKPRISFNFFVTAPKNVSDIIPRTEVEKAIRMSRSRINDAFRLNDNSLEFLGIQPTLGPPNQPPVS

Work on “recombinant ACE2-Fc fusion protein (residue Gln18-Ser760 fused to human Fc)” yielded a Kd of 10.9 nM.
